Assay results reported in US20170226169A1.

These binders were tested against 109QmHtt (UniProt P42858) (assay: cell-based or functional assay).
109QmHtt, sequence (P42858 other isoform, or with tags, fused parts or gaps): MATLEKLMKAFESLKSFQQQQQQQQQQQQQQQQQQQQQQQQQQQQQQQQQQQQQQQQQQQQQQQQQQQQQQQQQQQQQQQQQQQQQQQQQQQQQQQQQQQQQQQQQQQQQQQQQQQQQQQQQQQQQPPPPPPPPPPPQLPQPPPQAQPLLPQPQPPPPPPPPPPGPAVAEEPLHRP

Q: RRRRRRRRWDQQQQQQQQQQ (C-terminal amide (CONH2)) [8R10Q] was tested. Which average size of the aggregates (TIRF microscopy, Neuro2a cells) did it give?
A: 0.3 µm^2

Q: How did the average size of the aggregates (TIRF microscopy, Neuro2a cells) turn out when RRRRRRRRWDQQQQQQQQQQQQQQQ (C-terminal amide (CONH2)) [8R15Q] was run?
A: 0.2 µm^2

Q: RRRRRRRRWD (C-terminal amide (CONH2)) [8R] was tested. Which average size of the aggregates (TIRF microscopy, Neuro2a cells) did it give?
A: 3.3 µm^2

Q: Which average size of the aggregates (TIRF microscopy, Neuro2a cells) does the source give for RQQRRQQDQRQWQRQRQQR (C-terminal amide (CONH2)) [s8R10Q] here?
A: 1.7 µm^2
